Kd data for five substances are collected here from article PMC10654636.

Common to all, as to experiment: BLI; biotinylated recombinant human FcγR loaded on SAX (streptavidin) biosensors, antibody in serial dilutions in solution; kinetic buffer 1% casein, 0.2% Tween20, 1x PBS pH 7.4; 30°C; Octet HTX; global fit, 1:1 Langmuir model
On the technique in general: Biolayer interferometry detects binding as a change in optical thickness at a sensor tip.

The target of test [1] is human FcγRIIa R131 (CD32a R131), biotinylated recombinant protein (human).
For test [2], the target named is human FcγRIIIa V158 (CD16 V158), biotinylated recombinant protein (human).
Test [3] addresses human FcγRI (CD64), biotinylated recombinant protein (human) (UniProt P12314).
In test [4] the target is human FcγRIIb (CD32b), biotinylated recombinant protein (human) (UniProt P31994).
Test [5] deals with human FcγRIIa H131 (CD32a H131), biotinylated recombinant protein (human) (UniProt P12318).
For test [6], the target named is human FcγRIIIa F158 (CD16 F158), biotinylated recombinant protein (human) (UniProt P08637).

Chain of nonfucosylated anti-TIGIT mAb, human IgG1 (SEA-TGT) (antibody; other documents disagree on this pair) (VH): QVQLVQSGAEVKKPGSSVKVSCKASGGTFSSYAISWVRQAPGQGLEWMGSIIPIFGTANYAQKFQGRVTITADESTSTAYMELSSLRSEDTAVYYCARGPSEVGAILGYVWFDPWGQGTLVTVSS
Chain of nonfucosylated anti-TIGIT mAb, human IgG1 (SEA-TGT) (antibody; other documents disagree on this pair) (VL): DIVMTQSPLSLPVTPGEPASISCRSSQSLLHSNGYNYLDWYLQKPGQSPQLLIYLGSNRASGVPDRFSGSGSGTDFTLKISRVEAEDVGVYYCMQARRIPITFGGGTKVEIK
Chain of nonfucosylated anti-TIGIT mAb, human IgG1 (SEA-TGT) (antibody) (VH): as the sequence (VH) above
Chain of nonfucosylated anti-TIGIT mAb, human IgG1 (SEA-TGT) (antibody) (VL): as the sequence (VL) above

Turning to “nonfucosylated anti-TIGIT mAb, human IgG1 (SEA-TGT) (antibody)”, the dissociation constant Kd (in general, the free concentration of one partner at which half of the binding sites on the other are occupied at equilibrium, for simple one-to-one binding) came out at 3.64 µM in test [1] and 0.09 µM in test [2].

With “Fc-muted anti-TIGIT mAb, human IgG1 L234A/L235A/P329G (LALA-TGT) (antibody; other documents disagree on this pair)”, the Kd in test [3] came to 25.5 µM.

“anti-TIGIT mAb, human IgG1 S239D/A330L/I332E (DLE-TGT) (antibody)”: the values for the Kd in test [1] and in test [2] were 1.56 µM and 0.06 µM, respectively.

Turning to “anti-TIGIT mAb, human IgG1 S239D/A330L/I332E (DLE-TGT) (antibody; other documents disagree on this pair)”, the figures for the Kd in test [4] and in test [5] were 3.13 µM and 1.62 µM, respectively.

As to “nonfucosylated anti-TIGIT mAb, human IgG1 (SEA-TGT) (antibody; other documents disagree on this pair)”, the Kd was 19.1 µM in test [4], 0.49 µM in test [6], 3.22 µM in test [5] and 0.0019 µM in test [3].
